Results: PMC5955111, “The multifunctional protein YB-1 potentiates PARP1 activity and decreases the efficiency of PARP1 inhibitors”

Assays:
YB-1;PARP1 = YB-1;PARP1 (human;human, UniProt P67809;P09874 1-324;1-1014, |); assay: fluorescence anisotropy; 200 nM PARP1, 100 nM DNA, 0-1600 nM YB-1; ternary complex; 1x RB (composition not in the material); anisotropy at 25 C; EMSA: 37 C 10 min, 7.6% native PAGE in 25 mM Tris-borate pH 8.3 at 4 C; DNA 100 nM (anisotropy), 40 nM in Methods vs 100 nM in Figure 1B legend (EMSA); conditions: protein: recombinant;recombinant; tags: His-tag;; label: 3'-FAM on ODN1; for gel shift ODN1 also 5'-32P; blunt 32-bp duplex with a nick between ODN2 and ODN3; ODN1:ODN2:ODN3 annealed 1:1.2:1.2
Chain of YB-1;PARP1 (P67809 whole entry, chain 1 of 2): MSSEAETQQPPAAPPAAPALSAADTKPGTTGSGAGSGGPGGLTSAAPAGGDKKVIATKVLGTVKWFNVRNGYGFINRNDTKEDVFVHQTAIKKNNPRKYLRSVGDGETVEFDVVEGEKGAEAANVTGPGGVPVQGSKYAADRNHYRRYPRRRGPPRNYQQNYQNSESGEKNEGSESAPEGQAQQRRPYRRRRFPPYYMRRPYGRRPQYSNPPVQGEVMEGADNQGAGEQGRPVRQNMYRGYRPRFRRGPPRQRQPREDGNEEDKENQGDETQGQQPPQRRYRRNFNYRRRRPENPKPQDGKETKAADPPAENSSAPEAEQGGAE
Chain of YB-1;PARP1 (P09874 whole entry, chain 2 of 2): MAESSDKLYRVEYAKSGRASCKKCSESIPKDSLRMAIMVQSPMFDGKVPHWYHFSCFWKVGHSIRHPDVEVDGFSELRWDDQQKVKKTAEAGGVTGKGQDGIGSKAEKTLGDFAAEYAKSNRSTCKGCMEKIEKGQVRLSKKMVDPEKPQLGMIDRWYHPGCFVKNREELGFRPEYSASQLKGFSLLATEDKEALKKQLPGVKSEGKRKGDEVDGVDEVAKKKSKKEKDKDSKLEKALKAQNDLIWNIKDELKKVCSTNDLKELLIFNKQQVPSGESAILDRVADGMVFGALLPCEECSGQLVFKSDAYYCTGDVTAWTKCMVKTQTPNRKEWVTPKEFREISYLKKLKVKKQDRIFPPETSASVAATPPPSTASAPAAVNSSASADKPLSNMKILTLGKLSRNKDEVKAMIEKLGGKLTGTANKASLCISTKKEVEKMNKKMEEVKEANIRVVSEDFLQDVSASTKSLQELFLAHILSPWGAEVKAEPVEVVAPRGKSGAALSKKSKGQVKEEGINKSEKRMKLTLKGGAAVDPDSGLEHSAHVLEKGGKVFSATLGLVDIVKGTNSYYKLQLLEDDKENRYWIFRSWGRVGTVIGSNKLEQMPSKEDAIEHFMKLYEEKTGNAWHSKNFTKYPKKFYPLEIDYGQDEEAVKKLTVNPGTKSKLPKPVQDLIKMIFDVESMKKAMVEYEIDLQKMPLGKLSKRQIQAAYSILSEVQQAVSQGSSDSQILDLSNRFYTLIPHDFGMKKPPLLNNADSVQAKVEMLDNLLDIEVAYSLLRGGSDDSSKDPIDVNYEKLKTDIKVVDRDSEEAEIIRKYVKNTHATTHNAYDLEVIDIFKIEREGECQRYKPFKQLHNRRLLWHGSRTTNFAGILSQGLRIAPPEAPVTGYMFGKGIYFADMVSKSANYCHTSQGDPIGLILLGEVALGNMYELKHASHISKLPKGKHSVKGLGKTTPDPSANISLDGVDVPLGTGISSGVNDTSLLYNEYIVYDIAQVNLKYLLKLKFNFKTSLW

YB-1 = YB-1 (human, UniProt P67809 1-324); assay: fluorescence anisotropy; no PARP1; 100 nM DNA, 0-1600 nM YB-1; 1x RB (composition not in the material); anisotropy at 25 C; EMSA: 37 C 10 min, 7.6% native PAGE in 25 mM Tris-borate pH 8.3 at 4 C; DNA 100 nM (anisotropy), 40 nM in Methods vs 100 nM in Figure 1B legend (EMSA); conditions: protein: recombinant; tags: His-tag; label: 3'-FAM on ODN1; for gel shift ODN1 also 5'-32P; blunt 32-bp duplex with a nick between ODN2 and ODN3; ODN1:ODN2:ODN3 annealed 1:1.2:1.2
Chain of YB-1 (P67809 whole entry): as the sequence (P67809 whole entry, chain 1 of 2) above

B1: Nick (ODN1+ODN2+ODN3) (dsDNA)
DNA 1: GGAAGACCCTGACGTTTCCCAACTTTATCGCC
DNA 2: GGCGATAAAGTTGGG
DNA 3: AAACGTCAGGGTCTTCC
binding result (YB-1;PARP1): binds | binding result (YB-1): binds
